Patent EP0935607B1

Tests used:
[1] = target: recombinant HLA-DR2 fusion protein (DRα-Fos / DRβ-Jun heterodimer, DRA*0101 / DRB1*1501) secreted by Pichia pastoris (human); experiment: time course ELISA at 37°C, 200 nM DR2, 2 µM peptide, L243 capture
[2] = target: detergent soluble DR2 purified from an EBV transformed B cell line (human) (UniProt P01903); experiment: as above

- time to 50% maximum binding [1]: 3 h
- time to plateau of binding [1]: 18 h
- time to plateau of binding [2]: > 48 h
Substance: biotinylated MBP(85-99) peptide, biotin-SGSG-MBP(85-99) (from UniProt P02686 85-99)
